This passage reports protein stability index results from the supplement of paper PMC10567573.

B1: CHCHD6 (parent)
chain: MYKLSSEQFHEAASKMESTIKPRR
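Further: lentivirally expressed fusions sorted by FACS into six bins by GFP to DsRed ratio, PSI derived from sequencing read proportions per bin multiplied by bin number.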

This series covers variants of B1. The experiment in a line: protein stability index of a GFP-peptide fusion (GPS, HEK-293T) (PSI 1-6); higher = more stable. Conditions: c terminus: a fixed tail appended.
With MYKLSSEQFHEAASKHESTIKPRR [M16H], the protein stability index was 4.44.

As for MYKLSSEQFHEAASKNESTIKPRR [M16N], the protein stability index worked out at 4.17.

With MYKLSSEQFHEAASKLESTIKPRR [M16L], the protein stability index came out at 3.41.

As for MYKLSSEQFHEAASKYESTIKPRR [M16Y], the protein stability index was found to be 3.45.

As for MYKLSSEQFHEAASKQESTIKPRR [M16Q], the protein stability index amounted to 4.47.

With MYKLSSEQFHEAASKSESTIKPRR [M16S], the protein stability index is 4.16.

In the case of MYKLSSEQFHEAASKCESTIKPRR [M16C], the protein stability index amounted to 3.58.

Take MYKLSSEQFHEAASKIESTIKPRR [M16I]: the protein stability index amounted to 3.53.

As to MYKLSSEQFHEAASKFESTIKPRR [M16F], the protein stability index turned out to be 3.53.

For the variant MYKLSSEQFHEAASKWESTIKPRR [M16W], the protein stability index turned out to be 3.41.

Turning to MYKLSSEQFHEAASKAESTIKPRR [M16A], the protein stability index turned out to be 4.17.

In the case of MYKLSSEQFHEAASKKESTIKPRR [M16K], the protein stability index came to 4.31.

With MYKLSSEQFHEAASKGESTIKPRR [M16G], the protein stability index worked out at 3.77.

MYKLSSEQFHEAASKRESTIKPRR [M16R]: the protein stability index came to 3.94.

On to MYKLSSEQFHEAASKPESTIKPRR [M16P], for which the protein stability index came out at 4.31.

For MYKLSSEQFHEAASKVESTIKPRR [M16V], the protein stability index worked out at 4.46.

Take MYKLSSEQFHEAASKDESTIKPRR [M16D]: the protein stability index was 4.09.

As for MYKLSSEQFHEAASKEESTIKPRR [M16E], the protein stability index came to 4.55.

For MYKLSSEQFHGAASKMESTIKPRR [E11G], the protein stability index was found to be 3.8.

MYKLSSEQFHPAASKMESTIKPRR [E11P]: the protein stability index came out at 3.6.

With MYKLSSEQFHNAASKMESTIKPRR [E11N], the protein stability index was found to be 3.4.

For the variant MYKLSSEQFHDAASKMESTIKPRR [E11D], the protein stability index came out at 3.65.

For the variant MYKLSSEQFHIAASKMESTIKPRR [E11I], the protein stability index amounted to 3.34.

In the case of MYKLSSEQFHTAASKMESTIKPRR [E11T], the protein stability index was 3.75.

For the variant MYKLSSEQFHWAASKMESTIKPRR [E11W], the protein stability index was determined as 2.77.

With MYKLSSEQFHRAASKMESTIKPRR [E11R], the protein stability index is 3.35.

For the variant MYKLSSEQFHYAASKMESTIKPRR [E11Y], the protein stability index worked out at 3.52.

Take MYKLSSEQFHFAASKMESTIKPRR [E11F]: the protein stability index was 2.65.

In the case of MYKLSSEQFHAAASKMESTIKPRR [E11A], the protein stability index stood at 2.99.

On to MYKLSSEQFHSAASKMESTIKPRR [E11S], for which the protein stability index was determined as 3.37.

With MYKLSSEQFHKAASKMESTIKPRR [E11K], the protein stability index was 3.69.

For MYKLSSEQFHVAASKMESTIKPRR [E11V], the protein stability index amounted to 3.4.

On to MYKLSSEQFHQAASKMESTIKPRR [E11Q], for which the protein stability index came to 3.69.

Turning to MYKLSSEQFHLAASKMESTIKPRR [E11L], the protein stability index worked out at 3.26.

Turning to MYKLSSEQFHHAASKMESTIKPRR [E11H], the protein stability index turned out to be 3.22.

Regarding MYKLSSEQFHCAASKMESTIKPRR [E11C], the protein stability index turned out to be 3.06.

For MYKLSSEQFHMAASKMESTIKPRR [E11M], the protein stability index was 3.28.

MYKLSSEQFHEAASRMESTIKPRR [K15R]: the protein stability index came out at 3.72.

In the case of MYKLSSEQFHEAASQMESTIKPRR [K15Q], the protein stability index was found to be 4.74.

As for MYKLSSEQFHEAASDMESTIKPRR [K15D], the protein stability index worked out at 4.18.

Take MYKLSSEQFHEAASGMESTIKPRR [K15G]: the protein stability index worked out at 3.82.

With MYKLSSEQFHEAASPMESTIKPRR [K15P], the protein stability index came out at 3.93.

For the variant MYKLSSEQFHEAASFMESTIKPRR [K15F], the protein stability index turned out to be 3.91.

Regarding MYKLSSEQFHEAASWMESTIKPRR [K15W], the protein stability index amounted to 3.73.

For the variant MYKLSSEQFHEAASMMESTIKPRR [K15M], the protein stability index was 3.84.

Consider MYKLSSEQFHEAASLMESTIKPRR [K15L], for which the protein stability index turned out to be 3.73.

With MYKLSSEQFHEAASHMESTIKPRR [K15H], the protein stability index is 3.75.

For the variant MYKLSSEQFHEAASTMESTIKPRR [K15T], the protein stability index turned out to be 4.37.

Take MYKLSSEQFHEAASSMESTIKPRR [K15S]: the protein stability index was determined as 4.04.

As to MYKLSSEQFHEAASVMESTIKPRR [K15V], the protein stability index came to 4.2.

Take MYKLSSEQFHEAASNMESTIKPRR [K15N]: the protein stability index worked out at 4.42.

For the variant MYKLSSEQFHEAASIMESTIKPRR [K15I], the protein stability index came to 3.67.

On to MYKLSSEQFHEAASAMESTIKPRR [K15A], for which the protein stability index was determined as 3.49.

Consider MYKLSSEQFHEAASEMESTIKPRR [K15E], for which the protein stability index was 4.42.

With MYKLSSEQFHEAASCMESTIKPRR [K15C], the protein stability index was determined as 3.54.

As to MYKLSSEQFHEAASYMESTIKPRR [K15Y], the protein stability index came to 3.5.

Turning to MYKLSSEQFHEAASKMSSTIKPRR [E17S], the protein stability index was 3.71.

As to MYKLSSEQFHEAASKMVSTIKPRR [E17V], the protein stability index was 3.27.

Regarding MYKLSSEQFHEAASKMGSTIKPRR [E17G], the protein stability index turned out to be 4.03.

As for MYKLSSEQFHEAASKMKSTIKPRR [E17K], the protein stability index is 2.73.

On to MYKLSSEQFHEAASKMLSTIKPRR [E17L], for which the protein stability index came to 3.08.

MYKLSSEQFHEAASKMHSTIKPRR [E17H]: the protein stability index was 2.92.

With MYKLSSEQFHEAASKMCSTIKPRR [E17C], the protein stability index was determined as 3.46.

For MYKLSSEQFHEAASKMTSTIKPRR [E17T], the protein stability index worked out at 3.19.

In the case of MYKLSSEQFHEAASKMYSTIKPRR [E17Y], the protein stability index is 3.

On to MYKLSSEQFHEAASKMDSTIKPRR [E17D], for which the protein stability index came out at 4.

For the variant MYKLSSEQFHEAASKMPSTIKPRR [E17P], the protein stability index was found to be 3.15.

Regarding MYKLSSEQFHEAASKMNSTIKPRR [E17N], the protein stability index stood at 3.57.

On to MYKLSSEQFHEAASKMMSTIKPRR [E17M], for which the protein stability index came to 3.55.

MYKLSSEQFHEAASKMFSTIKPRR [E17F]: the protein stability index was 2.69.

Consider MYKLSSEQFHEAASKMQSTIKPRR [E17Q], for which the protein stability index was found to be 3.71.

On to MYKLSSEQFHEAASKMASTIKPRR [E17A], for which the protein stability index came out at 3.24.

Take MYKLSSEQFHEAASKMWSTIKPRR [E17W]: the protein stability index stood at 2.4.

As to MYKLSSEQFHEAASKMRSTIKPRR [E17R], the protein stability index is 3.29.

As for MYKLSSEQFHEAASKMISTIKPRR [E17I], the protein stability index came to 3.85.

As to MYKLSSEQFHEANSKMESTIKPRR [A13N], the protein stability index was 4.24.

In the case of MYKLSSEQFHEAESKMESTIKPRR [A13E], the protein stability index was 4.33.

For the variant MYKLSSEQFHEAYSKMESTIKPRR [A13Y], the protein stability index came out at 3.36.

Regarding MYKLSSEQFHEAMSKMESTIKPRR [A13M], the protein stability index is 2.59.

Regarding MYKLSSEQFHEAHSKMESTIKPRR [A13H], the protein stability index came to 3.9.

With MYKLSSEQFHEACSKMESTIKPRR [A13C], the protein stability index turned out to be 3.33.

As to MYKLSSEQFHEAISKMESTIKPRR [A13I], the protein stability index is 2.93.

Take MYKLSSEQFHEARSKMESTIKPRR [A13R]: the protein stability index amounted to 3.66.

In the case of MYKLSSEQFHEATSKMESTIKPRR [A13T], the protein stability index stood at 4.02.

Consider MYKLSSEQFHEAFSKMESTIKPRR [A13F], for which the protein stability index worked out at 2.88.

For the variant MYKLSSEQFHEAQSKMESTIKPRR [A13Q], the protein stability index came to 3.61.

MYKLSSEQFHEAGSKMESTIKPRR [A13G]: the protein stability index turned out to be 3.83.

With MYKLSSEQFHEAPSKMESTIKPRR [A13P], the protein stability index was 3.81.

Turning to MYKLSSEQFHEAVSKMESTIKPRR [A13V], the protein stability index amounted to 4.02.

MYKLSSEQFHEAWSKMESTIKPRR [A13W]: the protein stability index came out at 2.95.

Turning to MYKLSSEQFHEASSKMESTIKPRR [A13S], the protein stability index was found to be 3.81.

For MYKLSSEQFHEAKSKMESTIKPRR [A13K], the protein stability index amounted to 3.86.

MYKLSSEQFHEALSKMESTIKPRR [A13L]: the protein stability index was found to be 3.09.

Take MYKLSSEQFHEADSKMESTIKPRR [A13D]: the protein stability index stood at 4.25.
